Data on seven molecules can be found in patent publication US20210147523A1 (TEIJIN PHARMA, published 2021).

The target of assay [1] is T1, human SPNS2 (human, UniProt Q8IVW8 1-549).
T1 sequence: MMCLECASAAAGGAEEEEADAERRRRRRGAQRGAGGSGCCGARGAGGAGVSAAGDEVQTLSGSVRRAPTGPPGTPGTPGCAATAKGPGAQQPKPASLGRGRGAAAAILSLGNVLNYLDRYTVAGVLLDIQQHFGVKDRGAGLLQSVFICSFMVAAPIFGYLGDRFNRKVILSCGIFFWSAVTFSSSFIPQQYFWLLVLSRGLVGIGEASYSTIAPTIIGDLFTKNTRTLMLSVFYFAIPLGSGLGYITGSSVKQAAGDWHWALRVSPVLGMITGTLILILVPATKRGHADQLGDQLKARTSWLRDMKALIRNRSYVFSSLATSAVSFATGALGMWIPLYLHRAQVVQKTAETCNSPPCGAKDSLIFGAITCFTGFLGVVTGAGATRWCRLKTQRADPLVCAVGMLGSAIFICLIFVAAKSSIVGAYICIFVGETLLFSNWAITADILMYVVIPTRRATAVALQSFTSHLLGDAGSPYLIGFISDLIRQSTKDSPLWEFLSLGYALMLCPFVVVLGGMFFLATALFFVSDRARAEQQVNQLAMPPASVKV
The assay is described as follows: cell-based or functional assay.

Assay [2] has as its target T2, mouse SPNS2 (mouse, UniProt Q91VM4 1-549).
T2 sequence: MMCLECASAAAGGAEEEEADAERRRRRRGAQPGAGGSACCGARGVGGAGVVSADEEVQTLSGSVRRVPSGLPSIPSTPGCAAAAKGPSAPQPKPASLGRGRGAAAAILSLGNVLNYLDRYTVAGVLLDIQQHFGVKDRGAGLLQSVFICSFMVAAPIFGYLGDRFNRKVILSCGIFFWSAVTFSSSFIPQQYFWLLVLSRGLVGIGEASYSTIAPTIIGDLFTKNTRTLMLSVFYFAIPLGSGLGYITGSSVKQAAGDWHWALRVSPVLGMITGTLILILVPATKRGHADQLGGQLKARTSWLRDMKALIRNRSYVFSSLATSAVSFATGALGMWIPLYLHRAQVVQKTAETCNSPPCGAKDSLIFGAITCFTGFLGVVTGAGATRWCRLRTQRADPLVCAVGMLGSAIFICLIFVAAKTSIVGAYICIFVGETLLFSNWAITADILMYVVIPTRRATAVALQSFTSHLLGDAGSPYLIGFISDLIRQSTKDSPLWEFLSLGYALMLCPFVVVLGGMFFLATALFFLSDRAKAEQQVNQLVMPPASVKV
The assay is described as follows: cell-based or functional assay.

Assay [3] concerns the target T1, human SPNS2. The assay is described as follows: Cell ELISA. Here is the method:
(§1) Human and mouse SPNS2 and human SphK1 double stable expression Flp-in 293 cells were added to a poly D lysine coat 96-well plate (Corning, 356461) in a density of 1×10⁵ cells/well and was cultivated overnight, and then the culture medium was removed. An anti-SPNS2 antibody solution was adjusted into 20 μg/mL using 0.2% FBS/3% BSA/PBS, and 0.2% FBS/3% BSA/PBS (60 μL) was added to the antibody diluted solution (20 μL) to prepare seven-step diluted solutions by four fold serial dilution. Each diluted solution of the anti-SPNS2 antibody was added in a volume of 30 μL/well, and reacted for about one hour at room temperature. The antibody solution was removed, and the residue was washed with PBS containing 0.05% Tween 20 (PBS-T) two times, and fixed for about ten minutes at room temperature using 10% buffered formalin (Mildform (Trade mark) 10NM, Wako). After washing with PBS-T one time, a 5000-fold diluted solution of anti-rat IgG antibody HRP conjugate (Southern Biotech, 3030-05) in 0.2% FBS/3% BSA/PBS was added to each well (30 μL), and reacted for about one hour at room temperature. After washing with PBS-T four times, a substrate (TMB; 3, 3′, 5, 5′-tetramethylbenzidin) was added to each well (100 μL) to initiate the reaction. After 20 minutes, 2N sulfuric acid was added to each well (100 μL), and absorbance at 450 nm and 550 nm was measured. […] Each antibody bound to human SPNS2 and mouse SPNS2.
A general note: ELISA stands for enzyme-linked immunosorbent assay.

Assay [4] addresses T2, mouse SPNS2. The assay is described as follows: Cell ELISA. On the procedure: as §1
The target of assay [5] is T3, Mutant 4 of human SPNS2 (FLAG tag inserted in extracellular loop 11) (human, UniProt Q8IVW8 1-549).
T3 construct: on HEK293 cells; also called extracellular loop 11 mutant
T3 sequence: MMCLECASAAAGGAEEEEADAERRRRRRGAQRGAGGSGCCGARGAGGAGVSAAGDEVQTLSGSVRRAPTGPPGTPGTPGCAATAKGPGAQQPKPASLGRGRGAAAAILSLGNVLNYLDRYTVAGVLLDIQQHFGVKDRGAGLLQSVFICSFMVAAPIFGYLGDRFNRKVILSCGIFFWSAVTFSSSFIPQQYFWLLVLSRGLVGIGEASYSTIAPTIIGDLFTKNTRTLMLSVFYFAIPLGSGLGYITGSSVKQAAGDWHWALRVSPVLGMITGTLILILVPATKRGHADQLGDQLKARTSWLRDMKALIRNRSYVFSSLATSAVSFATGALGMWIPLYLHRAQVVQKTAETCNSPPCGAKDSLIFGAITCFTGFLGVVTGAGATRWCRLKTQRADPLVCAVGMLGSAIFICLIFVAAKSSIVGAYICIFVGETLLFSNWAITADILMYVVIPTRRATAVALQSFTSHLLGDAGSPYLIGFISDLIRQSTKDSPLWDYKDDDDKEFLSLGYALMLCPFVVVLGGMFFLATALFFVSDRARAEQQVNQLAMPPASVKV
The assay is described as follows: flow cytometry, FLAG-insertion mutant. On the procedure:
After the lipofection, the HEK 293 cells cultivated overnight were recovered from the culture dishes, and reacted with a cell staining buffer (BioLegend, 420201) containing an anti-FLAG antibody (Sigma-Aldrich, F1804) and an anti-SPNS2 antibody each in a volume of 20 μg/mL for 30 minutes at room temperature. After washing with a cell staining buffer one time, the anti-FLAG antibody was detected with an anti-mouse IgG-Alexa 647 conjugate antibody, and the anti-SPNS2 antibody was detected with an anti-rat IgG-FITC conjugate antibody with flow cytometer BD LSR Fortessa (Becton Dickinson). The binding ability to each mutant was evaluated with the ratio of the FITC-positive cell rate to the Alexa 647-positive cell rate. In Table 7, symbol (+) indicates a ratio of less than 0.1, symbol (±) indicates a ratio of 0.1 or more and less than 0.5, and symbol (−) indicate a ratio of 0.5 or more.

B1: 64-0807A (antibody, IgG2b, V domains shown)
VH: EVQVVESGGGLVQPGRSMKLSCAALGFTFRDYYMAWVRQTPTKGLEWVAAISTGGGNTYYRDSVKGRFTISRDNAKSTLYLQMDSLRSDDTATYYCARNPYGNYFDYWGQGVMVTVSS
VL: QFVLSQPNSVSTNLGSTVKLSCKRSTGNIGSNYVHWYQRHEGRSPTTLIYRDDKRPNGVPDRFSGSIDRSSNSALLTINNVQTEDEADYFCQSYSGGMYLFGGGTKLTVL
Turning to B1, the “pIC50, S1P transport inhibition (S1PR3 Ca2+ FLIPR bioassay)” value (“pIC50, S1P transport inhibition” below) in assay [1] was 7.4 pIC50 (M); in assay [2], 7.6 pIC50 (M). The Emax in assay [3] worked out at 1.83 absorbance; in assay [4], 1.88 absorbance. Further, the pEC50 in assay [3] is 8.07 pEC50 (M); in assay [4], 7.83 pEC50 (M). For the same molecule, in assay [5], the “FITC+/Alexa 647+ cell rate ratio” value was ≥ 0.5 ratio.

B2: 82-1109A (antibody, IgG2b, V domains shown)
VH: QVQLQQSGVELAKPGSSVKISCKASGNTFTSNYITWIKQTPGQGLEYIGYINTGSGKTYYNEKFKGKATLTADKSSSTAFMQLSSLTPDDSAVYFCASLTGVDYFDDWGQGVMVTVSS
VL: DDIVLTQSPALAPSLGQRATISCRASQSVRMSGYNLMHWYQQKPGQQPKLLIYDASKLASGIPARFSGSGSGTDFTLTIDPVQSDDIATYYCQQSKDDPYTFGAGTKLELRR
Take B2: the pEC50 in assay [3] and in assay [4] was 7.83 pEC50 (M) each time. Also, the “FITC+/Alexa 647+ cell rate ratio” value in assay [5] is < 0.1 ratio.

B3: 50-0704C (antibody, IgG2b, V domains shown)
VH: EVQLVGSGGGLVQPGRSMKLSCEASGFTFSNHYMAWVRQAPTKGLEWVATISTGGGNTYYRDSVKGRFTISRDNARSTLSLQMDSLRSEDTATYYCARQDYSNYMGGFAYWGQGTLVTVSS
VL: QFVLTQPNSVSTNLGSTVKLSCTRSIGNIGNNYVNWYKQYEGRSPTTMIYRDDERPDGVPDRFSGSIDRSSNSALLTINSVQTEDEADYFCQSFSSGIFIFGGGTKLTVL
On to B3, for which the “pIC50, S1P transport inhibition” value in assay [1] was 7.2 pIC50 (M); in assay [2], 7.6 pIC50 (M). Besides, the Emax in assay [3] was determined as 1.82 absorbance; in assay [4], 1.9 absorbance. Also, the pEC50 in assay [3] is 8.15 pEC50 (M); in assay [4], 7.75 pEC50 (M). Moreover, the “FITC+/Alexa 647+ cell rate ratio” value in assay [5] is ≥ 0.5 ratio.

B4: 89-1207D (antibody, IgG2b, V domains shown)
VH: EVQLVGSGGGLVQPGRSMKLSCEASGFTFSNHYMAWVRQAPTKGLEWVATISTGGGNTYYRDSVKGRFTISRDNARSILSLQMDSLRSEDTATYYCARQDYSNYMGGFAYWGQGTLVTVSS
VL: QFVLTQPNSVSTNLGSTVKLSCTRSIGNIGNNYVNWYKQYEGRSPTTMIYRDDERPDGVPDRFSGSIDRSSNSALLTINNVQTEDEADYFCQSFSSGMFIFGGGTKLTVL
As to B4, the figures for the “pIC50, S1P transport inhibition” value in assay [1] and in assay [2] were 7.2 pIC50 (M) and 7.6 pIC50 (M), respectively. Moreover, the Emax in assay [3] is 2.03 absorbance; in assay [4] it was 1.85 absorbance. The pEC50 is 7.97 pEC50 (M) in assay [3] and 7.72 pEC50 (M) in assay [4]. The “FITC+/Alexa 647+ cell rate ratio” value in assay [5] is ≥ 0.5 ratio.

B5: 18-0211B (antibody, IgG2b, V domains shown)
VH: AVQLVGSGGGLVQPGRSMKLSCEASGFTFSNHYMAWVRQAPTRGLEWVATISTGGGNTYYRDSVKGRFTISRDNTRSTLSLQMDSLRSEDTATYYCTRQDYTNYMGGFAYWGQGTLVTVSS
VL: QFVLTQPNSVSTNLGSTVKLSCTRSIGNIGNNYVNWYKQYEGRSPTTLIYRDDERPDGVPDRFSGSIDRSSNSALLTINSVQTEDGADYFCQSFSSGIFIFGGGTTLTVL
Regarding B5, the figures for the “pIC50, S1P transport inhibition” value in assay [1] and in assay [2] were 7.6 pIC50 (M) and 7.9 pIC50 (M), respectively. Moreover, the Emax turned out to be 1.72 absorbance in assay [3] and 1.61 absorbance in assay [4]. Moreover, the pEC50 in assay [3] was 8.59 pEC50 (M); in assay [4], 8.37 pEC50 (M). In addition, the “FITC+/Alexa 647+ cell rate ratio” value in assay [5] is ≥ 0.5 ratio.

B6: 37-0511F (antibody, IgG2b, V domains shown)
VH: EVHLQQSGAALVRPRASVKLSCKVSGDSISRYYVHFVKQRPGQGLEWIGRIDPEDDTTKYSEKFKNRATLTADASSDTASLILSGLTSDDTATYFCSTLTGLDYWGQGVMVTVSS
VL: DIQMTQSPPVLSTSVGDRVTLRCKPSQNVHSKLDWYQQKHGEAPKLLIYYTHNLQTGIPSRFSGSGSGTDYTLTISSLQPEDVATYYCFQYYSGWTFGGGTKLEMKR
In the case of B6, the results for the “pIC50, S1P transport inhibition” value in assay [1] and in assay [2] were 7.3 pIC50 (M) and 7.8 pIC50 (M), respectively. Further, the Emax in assay [3] came out at 1.35 absorbance; in assay [4], 1.29 absorbance. Also, the figures for the pEC50 in assay [3] and in assay [4] were 8.2 pEC50 (M) and 8.01 pEC50 (M), respectively. The “FITC+/Alexa 647+ cell rate ratio” value in assay [5] is ≥ 0.5 ratio.

B7: 53-0707E (antibody, IgG2b, V domains shown)
VH: EVQLQQSGAELVRPRTSVKLSCKVSGDSITRYYVHFVKQRPGQGLEWIGRIDPEDDTTKYSEKFKKKATLTADASSNTAYLIFSGLTSEDTATYFCSTLTGLDYWGQGVMVTVSS
VL: DIQMTQSPPVLSTSVGDRVTLRCKASQNVHSKLDWYQQKHGEAPKLLIYYTHNLQTGIPSRFSGSGSGTDYTLTISSLQPEDVATYYCFQYYSGWTFGGGTKLEMKR
Take B7: the figures for the “pIC50, S1P transport inhibition” value in assay [1] and in assay [2] were 7.1 pIC50 (M) and 7.6 pIC50 (M), respectively. The Emax stood at 1.62 absorbance in assay [3] and 1.43 absorbance in assay [4]. Also, the pEC50 in assay [3] was 7.87 pEC50 (M); in assay [4], 7.82 pEC50 (M). Also, the “FITC+/Alexa 647+ cell rate ratio” value in assay [5] is ≥ 0.5 ratio.
